Target: T1, CFP-PPARγ2 (peroxisome proliferator activated receptor γ2 fused to ECFP) (UniProt P37231-1 1-505)
T1 sequence (looked up): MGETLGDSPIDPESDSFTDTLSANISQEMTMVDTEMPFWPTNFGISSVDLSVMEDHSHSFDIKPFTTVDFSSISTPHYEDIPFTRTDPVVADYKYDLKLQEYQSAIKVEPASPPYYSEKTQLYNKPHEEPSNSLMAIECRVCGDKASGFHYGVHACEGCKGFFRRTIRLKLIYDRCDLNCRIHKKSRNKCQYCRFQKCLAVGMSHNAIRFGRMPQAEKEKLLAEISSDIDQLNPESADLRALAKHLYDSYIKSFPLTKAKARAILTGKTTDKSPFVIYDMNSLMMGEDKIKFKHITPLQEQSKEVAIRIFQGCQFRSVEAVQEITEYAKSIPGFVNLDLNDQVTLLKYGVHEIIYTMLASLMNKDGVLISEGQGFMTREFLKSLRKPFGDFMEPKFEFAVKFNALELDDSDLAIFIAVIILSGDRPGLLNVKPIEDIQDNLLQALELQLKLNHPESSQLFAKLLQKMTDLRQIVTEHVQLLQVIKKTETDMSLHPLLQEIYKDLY
Experiment: FRET or BRET

B1: EYFP-SRC-3 (steroid receptor coactivator 3 fused to EYFP) (natural protein)
chain: not shown
**Q.** B1 was tested. Which “fold change in FRET, MIX against vehicle” value did it give?
**A.** The value was > 1.5 fold.

B2: EYFP-SRC-2 (steroid receptor coactivator 2 fused to EYFP) (natural protein)
chain: not shown
**Q.** With B2 as the binder, how does the “fold change in FRET, MIX against vehicle” value read?
**A.** Its value is > 1.5 fold.
